T1: activated HMG1 from LPS stimulated THP-1 cells (human, UniProt P09429 1-215)
T1 sequence (looked up): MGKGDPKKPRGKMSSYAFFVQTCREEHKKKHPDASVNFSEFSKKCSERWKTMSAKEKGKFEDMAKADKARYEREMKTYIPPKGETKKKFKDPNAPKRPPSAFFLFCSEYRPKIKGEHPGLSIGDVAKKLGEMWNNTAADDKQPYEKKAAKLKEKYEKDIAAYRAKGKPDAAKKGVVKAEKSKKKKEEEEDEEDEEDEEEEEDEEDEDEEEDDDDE

T2: HMG2 coated on ELISA plates (Bos taurus (Bovine), UniProt P40673 2-209)
T2 construct: also called HMGB2; HMBG2
T2 sequence: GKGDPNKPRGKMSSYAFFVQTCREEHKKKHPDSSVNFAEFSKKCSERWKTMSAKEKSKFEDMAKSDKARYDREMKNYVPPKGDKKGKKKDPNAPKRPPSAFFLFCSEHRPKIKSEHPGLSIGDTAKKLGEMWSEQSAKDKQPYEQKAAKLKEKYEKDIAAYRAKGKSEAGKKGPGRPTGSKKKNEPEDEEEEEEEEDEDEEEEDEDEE

T3: HMG1 B Box peptide amino acids 150-183
T3 peptide: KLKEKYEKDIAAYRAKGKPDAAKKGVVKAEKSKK

T4: HMG1 purified from calf (bovine) thymus (bovine, UniProt P10103 2-215)
T4 construct: also called Calf thymus HMGB1; thymus HMG1
T4 sequence (looked up): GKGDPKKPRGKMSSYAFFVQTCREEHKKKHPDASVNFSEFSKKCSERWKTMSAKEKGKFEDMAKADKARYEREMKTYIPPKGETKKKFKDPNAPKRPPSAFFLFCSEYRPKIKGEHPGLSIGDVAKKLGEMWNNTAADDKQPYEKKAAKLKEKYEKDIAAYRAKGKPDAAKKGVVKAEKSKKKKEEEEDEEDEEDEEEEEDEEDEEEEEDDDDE


Tests used:
[1] = target: T5, recombinant HMG1 produced in E. coli as a calmodulin binding protein (CBP) fusion (human); experiment: cell-based or functional assay
[2] = target: T1, activated HMG1 from LPS stimulated …; experiment: cell-based or functional assay
[3] = target: T2, HMG2 coated on ELISA plates; experiment: direct ELISA, HMGB2 coated at 5 ug/mL, antibody at 10 ug/mL, anti-human kappa/lambda-HRP, OD 490
Method: Binding to HMG1 vs. HMG2: Ultra high-binding ELISA plates (ThermoLab systems, #3855) were coated with either 5 ug/mL of Calf thymus HMGB1 or HMBG2 diluted in 10 mM Phosphate buffered saline (PBS), pH 7.2 and incubate overnight at 4 degrees. The plates were washed twice with Ca and Mg free PBS and 100 microliters of anti-HMGB1 antibody diluted in 10 mM PBS, pH 7.2+1% bovine serum albumin (BSA) to a final concentration of 10 ug/mL was added to each well and the plates were incubated 1 hour at room temperature. The wells were washed three times with 100 μl of PBS, pH 7.2. HRP labeled goat-anti-human IgG Kappa-chain (KPL, #14-10-10) and goat-anti-human IgG Lambda-chain (KPL, #14-10-11) were diluted in 10 mM PBS+1% BSA 1:1000 and 100 μl were added to each well and incubated for 1 hour at room temperature. The wells were then washed three times with 100 μl of PBS, pH 7.2. OPD substrate (Pierce chemical company, #34006) was prepared following the manufacturers instructions and 100 μl of prepared substrate was added to each well and the plates incubated at room temperature in the dark for 20-30 minutes. The reaction was stopped with the addition of 100 μl of 2M H₂SO₄, and the plates read on a plate reader at a wavelength of 490 nm.

[4] = target: T3, HMG1 B Box peptide amino acids 150-183; experiment: ELISA, HMG1 B Box peptide 150-183 coated at 10 ug/ml, antibody titrated, OD 450
Method in brief: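 Plates blocked with 4% milk/PBS, or biotinylated peptides captured on avidin wells after 1% BSA blocking (30 min RT). Human anti-HMG1 antibodies titrated or serially diluted from 10 μg/ml, detected with anti-human IgG-HRP and TMB substrate, absorbance at 450 nm.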

[5] = target: T4, HMG1 purified from calf (bovine) thymus; experiment: direct ELISA, calf thymus HMGB1 coated at 5 ug/mL, antibody at 10 ug/mL, anti-human kappa/lambda-HRP, OD 490
Method in brief: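 Calf thymus HMGB1 or HMGB2 coated at 5 ug/mL in 10 mM PBS pH 7.2 overnight at 4 °C; anti-HMGB1 antibody added at 10 ug/mL final in PBS + 1% BSA, 1 h at room temperature. Detection with HRP anti-human kappa plus lambda (1:1000, 1 h), OPD substrate 20-30 min in the dark, H₂SO₄ stop, absorbance 490 nm.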

[6] = target: T5, recombinant HMG1 produced in E. coli as …; experiment: BIAcore 3000, mAb amine-coupled to CM5, HMG1 injected, steady-state model
Method in brief: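 Each mAb amine-coupled to a CM5 chip alongside a reference flow cell; two-fold serial dilutions of E. coli-expressed CBP-fusion HMG1 injected at slow flow. Surfaces regenerated with 1M NaCl-50 mM NaOH. Affinity derived from binding curves by a steady-state model.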

| Binder | IC50 IL-6 [1] | IC50 NO [1] | IC50 nm IL-6 Native HMGB [2] | binding result [3] | binding result [4] | IC50 IL-1β [1] | IC50 TNF-α [1] | binding result [5] | Kd [6] | IC50 IL-12 [1] |
| --- | --- | --- | --- | --- | --- | --- | --- | --- | --- | --- |
| human anti-HMG1 antibody E11 (antibody, IgG1, V domains shown, full length IgG1 made from a human Fab phage clone) VH: EVQLLESGGGLVQPGGSLRLSCAASGFTFSRYQMNWVRQAPGKGLEWVSSISPSGGHTHYADSVKGRFTISRDNSKNTLYLQMNSLRAEDTAVYYCAKDGRQGKISTVDHWGQGTLVTVSS VL: DIQMTQSPGTLSLSPGERATLSCRASQSVRSNFLAWYQQKPGQAPRLLIYGASRRASGIPDRFSGSGFGADFTLSISRLEPEDFAVYYCQQYGSSPNTFGQGSRVEIK | 1.22 nM | 101 µg/mL | 1.73 nM | binds | no binding (tested: 10 ug/ml (log 1.0)) |  |  |  |  |  |
| human anti-HMG1 antibody S6 (antibody, V domains shown, full length IgG1 made from a human Fab phage clone; two paragraphs print 'S4' for the PTA-6143 deposit; also called ATCC PTA-6143) VH: EVQLLESGGGLVQPGGSLRLSCAASGFTFSWYDMSWVRQAPGKGLEWVSRISPSGGYTMYADSVKGRFTISRDNSKNTLYLQMNSLRAEDTAVYYCARLEVGATSGGTAFDIWGQGTMVTVSS VL: not shown | 0.174 nM | 4.15 µg/mL |  |  | no binding (tested: 10 ug/ml (log 1.0)) | 0.0232 µg/mL | 0.0182 µg/mL | binds | 39 nM |  |
| human anti-HMG1 antibody S16 (antibody, IgG1, V domains shown, full length IgG1 made from a human Fab phage clone; also called ATCC PTA-6259) VH: EVQLLESGGGLVQPGGSLRLSCAASGFTFSWYSMLWVRQAPGKGLEWVSYISPSGGFTNYADSVKGRFTISRDNSKNTLYLQMNSLRAEDTAVYYCARWDYNSGWYYDHWGQGTLVTVSS VL: DIQMTQSPDTLSLSPGERATLSCRASQSVNSRNLAWYQQKPGQAPRLLIYGASTRATGIPDRFSGSVSGTEFTLTISSLQPDDFATYYCQQYNSYFTFGQGTKLEIK | 0.56 nM |  | 38.9 nM | binds |  | 6.05 µg/mL | 1.44 µg/mL | binds | 23 nM | 1.24 µg/mL |
| human anti-HMG1 antibody G4 (antibody, IgG1, V domains shown, full length IgG1 made from a human Fab phage clone; also called ATCC PTA-6258) VH: EVQLLESGGGLVQPGGSLRLSCAASGFTFSWYDMTWVRQAPGKGLEWVSSISPSGGYTKYADSVKGRFTISRDNSKNTLYLQMNSLRAEDTAVYYCTTEFYDYLDVWGKGTTVTVSS VL: DIQMTQSPGTLSLSPGEGATLSCRASQSVSSTYLAWYQQKPGQAPRLLIYEASKRATGTPARFSGSGSGTDFTLSISSLEPEDFAVYYCQHRHNWPPQWTFGQGTKVEVK | 0.9 nM |  |  |  | no binding (tested: 10 ug/ml (log 1.0)) | 5.01 µg/mL | 5.51 µg/mL | binds | 30 nM | 0.715 µg/mL |

Reference: patent US20110287023A1 (AstraZeneca / MedImmune, published 2011)
